{
  "source": "paper PMC8440923",
  "about": "“Peptides Targeting the Interaction Between Erb1 and Ytm1 Ribosome Assembly Factors” (Frontiers in Molecular Biosciences, 2021)",
  "molecules": {"B1": {"name": "Erb1 (Chaetomium thermophilum ribosome assembly factor) (natural protein, UniProt G0SCK6 1-801, looked up)", "chain": "MGSKIVEKKRKSRDSDSESDNELGDGLFDGVLSQSEDEEDYIPSSEVDEDDDDDADESASEDSDDSNDSEDDEVEEDDEALLSDEIPSEGESEKDQDLAESKESKQDQDKEPSEPEILEPFVDPPRKEDEELEDRNYRIEKDANGGIRYVYDEIDPVYDSDDTDYNVPVNTIGNIPLSFYDSYPHIGYDINGKKIMRPATGDALQNLLDSIEVPEGWTGLTDPNTGKPLNLSRDELELIRKVQQGLIPDDVEDPYPDTVEWFTSVEEKMPLSAAPEPKRRFIPSKNEAKQIMKLVRAIREGRILPYKPPEEREREELEKEEEFYDLWQNEEPQPPNPMHIPAPKLPPPGYDLSYNPPPEYLPTKEEREEWEKMDPEDREKDYLPTKYDSLRKVPAWGNFVKERFERCMDLYLAPRVRKNRLNIDPNSLLPKLPSPDELKPFPTVQQTIFRGHEGRVRSVAIDPTGVALATGGDDGTVRVWELLTGRQVWSVKLNGDEAVNTVRWRPTKDTFILAAAAGEDIFLMIPTHPSVTPALDQASRDILNAGFGHATNGKQQANLPPGKEPPGKWARPGTRLEDEGVLLRITVRSTIKAISWHRRGDHFATVSPSGQRSSVAIHTLSKHLTQIPFRKLNGLAQTASFHPLRPLFFVATQRSIRCYDLQKLELVKIVQPGAKWISSFDVHPGGDNLVVGSYDKRLLWHDLDLSNRPYKTMRFHTEAIRAVRFHKGGLPLFADASDDGSLQIFHGKVPNDQLENPTIVPVKMLKGHKVVNKLGVLDIDWHPREPWCVSAGADGTARLWM", "notes": "Erb1, Chaetomium thermophilum; cloned in pET28-NKI/LIC 6His/3C; Erb1 was held on Ni-NTA biosensors; source: E. coli (DE3) BL21 CodonPlus (RIPL), auto-induction, purified (Histrap-HP Ni, HiTrap Heparin, Superdex 200 SEC)"}, "B2": {"name": "Ytm1 (Chaetomium thermophilum ribosome assembly factor) (natural protein)", "chain": "MDAPMEDAPAPVAQVKVIFTTTEPDLELPESKRQLLVPADIRRYGLSRILNSESMLDTGSIPFDFLINGSFLRSSLEDYLTSNGLSLETTLTLQYVRSLIPPVYEASFEHDDWVSAVDVLSATSPAGRWSSAANSSAAVQPGQERVLSASYDGLLRIWNASGSVIATSPSGSHGGHTASIKAAKFLTSDRLASAGMDRTVRVWKYTESDHFTGELKPTLELYGHTGSVDWLDVDGHSKHILTASADGAIGFWSASKASAPEPDASLLPGAHVSKRRKATSSVSTAQRGPLGLWSIHTAPATAAIFDPRDRTVAYSASQDHTVRTLDLTTGQVVSTLTLTHPLLSLSALTRAGTTSPLLAAGTSARHITMVDPRASSATTSVMTLRGHANKVVSLSPSPENEYSLVSGSHDGTCRVWDLRSVRPATKEEGSLGGVSEPVYVIERESWASKGKKKRPVAGDGCKVFSVVWDKLGIFSGGEDKKVQVNRGRNIVTEQK", "notes": "Ytm1, Chaetomium thermophilum; YTM1 gene amplified from total cDNA and cloned in pOPIN-F; For MST, Ytm1 was labelled with the Red-NHS second-generation dye; source: Sf9 insect cells (baculovirus), purified (Histrap-HP Ni, Superdex 200 SEC)"}},
  "key": {"[1]": {"target": "T1, Erb1/Ytm1 complex (Thermochaetoides thermophila, UniProt G0SFB5)", "T1 construct": "6xHis; made in house; host or cells: Ytm1: Sf9 insect cells (baculovirus); Erb1: Escherichia coli (DE3) BL21 CodonPlus (RIPL)", "T1 sequence (G0SFB5 1-495)": "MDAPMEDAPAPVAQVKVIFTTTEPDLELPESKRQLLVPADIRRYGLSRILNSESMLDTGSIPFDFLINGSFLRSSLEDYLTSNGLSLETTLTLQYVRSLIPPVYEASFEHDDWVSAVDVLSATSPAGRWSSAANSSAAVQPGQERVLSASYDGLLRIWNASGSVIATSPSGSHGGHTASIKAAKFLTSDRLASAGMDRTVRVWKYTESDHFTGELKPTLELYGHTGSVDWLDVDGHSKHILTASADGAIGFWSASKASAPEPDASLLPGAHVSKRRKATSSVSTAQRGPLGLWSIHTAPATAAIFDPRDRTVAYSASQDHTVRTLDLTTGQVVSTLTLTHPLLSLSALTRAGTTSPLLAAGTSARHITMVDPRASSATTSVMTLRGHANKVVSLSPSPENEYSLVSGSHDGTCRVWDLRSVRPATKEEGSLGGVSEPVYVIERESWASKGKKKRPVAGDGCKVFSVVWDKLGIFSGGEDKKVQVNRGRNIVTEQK", "assay": "Biolayer interferometry peptide interference assay, immobilized Erb1, Ytm1 analyte preincubated with P1-P3", "format": "binding, Chaetomium thermophilum", "conditions": "BLI, 5 µM Ytm1 preincubated with equimolar peptide, reference without peptide 1.724e-3", "experimental": "Peptides were commercially obtained from Synpeptide Co., Ltd., Shanghai, China. All experiments have been made in triplicates and include control curves for bait and analyte only.\nPotential interference peptide samples were evaluated by their ability to interfere the kinetics and affinity of the complex between Erb1 and Ytm1 as measured by Biolayer Interferometry (BLItz, Pall FortéBio Corp.) using Ni-NTA biosensors (FortéBio) and 50 mM HEPES, pH 7.5; 150 mM NaCl; 5% (v/v) glycerol; and 2 mM β-mercaptoethanol (BME) buffer. To set the reference KD, an 80 µg/ml solution of Erb1 was immobilized to the biosensor in order to obtain binding curves for increasing concentrations of Ytm1. According to this, an evaluation of Erb1-derived peptides (P1–P3) was performed using 5 µM Ytm1 previously incubated during 30 min at equimolar concentrations of each peptide. New KD values were determined. […]\nBiolayer interferometry interference assays were used to evaluate the ability of each peptide to interfere in the in vitro formation of the Erb1/Ytm1 complex. […] Peptides were evaluated for their ability to decrease in the Erb1/Ytm1 complex formation by preincubating the analyte with each peptide derived from the immobilized partner. […] Erb1-derived peptides were evaluated by their ability to decrease Erb1/Ytm1 complex affinity. […]"}, "[2]": {"target": "T2, Ytm1 (Thermochaetoides thermophila, UniProt G0SFB5)", "T2 construct": "6xHis; made in house; host or cells: Sf9 insect cells (baculovirus)", "T2 sequence (G0SFB5 1-495)": "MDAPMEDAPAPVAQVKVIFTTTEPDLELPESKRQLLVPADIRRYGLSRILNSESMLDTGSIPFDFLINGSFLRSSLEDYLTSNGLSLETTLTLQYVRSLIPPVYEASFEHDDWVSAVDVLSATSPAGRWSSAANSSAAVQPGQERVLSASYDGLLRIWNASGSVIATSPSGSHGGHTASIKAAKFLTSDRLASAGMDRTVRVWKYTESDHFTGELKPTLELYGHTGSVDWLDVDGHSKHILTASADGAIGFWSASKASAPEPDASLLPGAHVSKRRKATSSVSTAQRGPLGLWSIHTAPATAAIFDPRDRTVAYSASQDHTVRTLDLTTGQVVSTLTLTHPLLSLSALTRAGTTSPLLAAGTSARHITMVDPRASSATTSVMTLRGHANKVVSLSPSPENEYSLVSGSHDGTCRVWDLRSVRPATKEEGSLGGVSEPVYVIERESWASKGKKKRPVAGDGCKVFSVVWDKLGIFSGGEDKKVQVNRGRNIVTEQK", "assay": "Differential scanning fluorimetry (thermofluor) of Ytm1 with peptide", "format": "binding, Chaetomium thermophilum", "conditions": "DSF, SYPRO Orange 1:1,000; 5 µM Ytm1, 1 mM peptide; 50 mM HEPES pH 7.5, 150 mM NaCl; 20-85°C at 1°C/min; triplicates", "experimental": "Thermofluor assays ([Pantoliano et al., 2001]) were performed on a 7,500 Fast Real-Time PCR System (Applied Biosystems) measuring the gradual fluorescence generated by a 1:1,000 dilution of SYPRO Orange Protein Stain Gel (Supelco, Merck-Sigma) along with 1°C/min temperature increase from 20°C until 85°C.\nThe samples were mixed containing the protein Ytm1 at 5 µM in 50 mM HEPES pH 7.5, 150 mM NaCl and peptides P1-P3 at 1 mM concentration. Previously, lyophilized P2 and P3 were resuspended in the same Ytm1 buffer and P1 was solubilized in 10 mM Tris (hydroxymethyl)-methylamine (Tris-HCl), pH 8.8 for P1. Data of triplicated experiments were analyzed using GraphPad Prism 5.01 software."}, "[3]": {"target": "T2, Ytm1", "assay": "Microscale thermophoresis of labelled Ytm1 with peptide", "format": "binding, Chaetomium thermophilum", "conditions": "peptide at a maximum concentration of 1,580 µM, data quality did not allow fitting of KD", "experimental": "Microscale thermophoresis (MST) was used to determine the binding affinity between Ytm1 and P1. Ytm1 was labeled with a Red-NHS second-generation dye kit (100 µl at 10 µM of protein +300 µM dye solution) for 30 min at room temperature in the dark. 5 nM of labeled Ytm1 in 50 mM HEPES pH 7.5, NaCl 150 mM supplemented with 0.1% (v/v) Pluronic F-127 was used for the assay. P1 stock is diluted in 10 mM Tris (hydroxymethyl)-methylamine (Tris-HCl), pH 8.8. Ytm1 and P1 were mixed at 1:1 molar ratio in sixteen serial dilutions (1,230 μM–0.0751 µM) using the same buffer. Measurements were taken on a Monolith NT.115 instrument (NanoTemper Technologies). Similarly biding between Ytm1 and P3 using MST was tested using the same Ytm1 buffer also for P3. Curve fitting and KD calculations every 10 min were analyzed from three independent experiments with MO. […] Curves were analyzed using Affinity Analysis Software (NanoTemper Technologies)."}, "[4]": {"target": "B2", "assay": "BLI; interference assay; Ytm1 (80 µg/ml) immobilised on Ni-NTA biosensor; 20 µM Erb1 preincubated with equimolar Ytm1-derived peptide (P4-P6) as analyte; 50 mM HEPES pH 7.5, 150 mM NaCl, 5% glycerol, 2 mM BME", "conditions": "both partners purified"}, "[5]": {"target": "B1", "assay": "BLI; BLItz; Ytm1 (80 µg/ml) immobilised on Ni-NTA biosensor, Erb1 as analyte; 50 mM HEPES pH 7.5, 150 mM NaCl, 5% glycerol, 2 mM BME; reference without peptide", "conditions": "both partners purified"}, "[6]": {"target": "B1", "assay": "BLI; BLItz; Erb1 (80 µg/ml) immobilised on Ni-NTA biosensor, increasing concentrations of Ytm1 as analyte; 50 mM HEPES pH 7.5, 150 mM NaCl, 5% glycerol, 2 mM BME; reference without peptide", "conditions": "both partners purified"}, "[7]": {"target": "B1", "assay": "BLI; interference assay; Erb1 (80 µg/ml) immobilised on Ni-NTA biosensor; 5 µM Ytm1 preincubated 30 min with equimolar Erb1-derived peptide (P1-P3) as analyte; 50 mM HEPES pH 7.5, 150 mM NaCl, 5% glycerol, 2 mM BME", "conditions": "both partners purified"}},
  "data": [
    {"molecule": "DWHPREPWCV [Peptide P3, Erb1-derived peptide …, residues 780–789]", "values": [
      {"measurement": "kd (1/s) of Erb1/Ytm1 binding after preincubation of Ytm1 with peptide", "setting": "[1]", "value": 0.01238, "unit": "s⁻¹"},
      {"measurement": "Thermal shift (Tm) of Ytm1 in the presence of peptide", "setting": "[2]", "value": "did not show any significant thermal shift"},
      {"measurement": "Binding to Ytm1 by MST (in words)", "setting": "[3]", "value": "tendency toward binding"}
    ]},
    {"molecule": "B1", "values": [
      {"measurement": "KD after preincubation of Erb1 with equimolar P6", "setting": "[4]", "value": 2400, "unit": "nM"}
    ]},
    {"molecule": "B2", "values": [
      {"measurement": "Kd", "setting": "[5]", "value": 229, "unit": "nM"},
      {"measurement": "Kd", "setting": "[6]", "value": 32.3, "unit": "nM"},
      {"measurement": "KD after preincubation of Ytm1 with equimolar P1", "setting": "[7]", "value": 190, "unit": "nM"},
      {"measurement": "KD after preincubation of Ytm1 with equimolar P3", "setting": "[7]", "value": 170, "unit": "nM"}
    ]}
  ]
}
